# US20090317825
# Molecular target: human GST-E1 (Boston Biochem) (UniProt P22314)
# Sequence (P22314 whole entry): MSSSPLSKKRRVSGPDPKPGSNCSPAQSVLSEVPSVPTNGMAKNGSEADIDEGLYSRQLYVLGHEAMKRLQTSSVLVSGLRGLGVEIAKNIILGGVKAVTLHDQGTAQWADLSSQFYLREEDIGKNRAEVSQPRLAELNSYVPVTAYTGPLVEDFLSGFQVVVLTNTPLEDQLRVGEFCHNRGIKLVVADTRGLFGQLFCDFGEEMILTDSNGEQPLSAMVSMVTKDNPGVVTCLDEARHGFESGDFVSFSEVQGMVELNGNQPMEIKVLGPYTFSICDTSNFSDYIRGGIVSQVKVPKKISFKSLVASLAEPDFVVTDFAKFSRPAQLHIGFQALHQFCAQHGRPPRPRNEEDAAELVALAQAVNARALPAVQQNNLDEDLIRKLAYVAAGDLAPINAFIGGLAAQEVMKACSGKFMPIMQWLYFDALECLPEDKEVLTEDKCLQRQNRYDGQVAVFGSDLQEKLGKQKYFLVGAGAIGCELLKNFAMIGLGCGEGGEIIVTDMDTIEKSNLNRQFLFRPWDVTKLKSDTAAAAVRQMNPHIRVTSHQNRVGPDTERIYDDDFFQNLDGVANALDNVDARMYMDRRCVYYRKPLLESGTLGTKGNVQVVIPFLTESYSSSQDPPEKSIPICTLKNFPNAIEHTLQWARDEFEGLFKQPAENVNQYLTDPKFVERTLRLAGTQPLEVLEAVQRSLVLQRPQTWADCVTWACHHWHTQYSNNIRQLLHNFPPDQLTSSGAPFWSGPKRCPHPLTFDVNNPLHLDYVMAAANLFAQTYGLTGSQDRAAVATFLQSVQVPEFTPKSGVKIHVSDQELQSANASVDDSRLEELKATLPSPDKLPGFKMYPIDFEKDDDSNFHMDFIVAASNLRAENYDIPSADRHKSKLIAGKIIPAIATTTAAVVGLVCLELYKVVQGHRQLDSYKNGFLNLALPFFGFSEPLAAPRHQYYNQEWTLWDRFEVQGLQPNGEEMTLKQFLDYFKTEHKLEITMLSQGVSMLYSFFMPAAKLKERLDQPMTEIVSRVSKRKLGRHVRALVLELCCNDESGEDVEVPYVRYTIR
substance,measurement,value
"His6-Parkin (full-length human Parkin fused to an N-terminal histidine tag, from E. coli, refolded)","ubiquitination of Parkin in the absence of UbCH7 (biotin-ubiquitin Western blot, NeutrAvidin-HRP)",some reaction product was seen in the absence of UbCH7 when Parkin was incubated with E1 and ubiquitin for 90 minutes
